Measurements taken from the supplement of paper PMC9170038.

Tested on: MS2 coat protein
Assay: apparent KD of MS2 coat protein; higher = weaker reporter binding
Details: Eterna round: R107
Method: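 RNA-MaP round R107: designed RNA switches with theophylline, tryptophan, arginine or FMN aptamers are transcribed on-chip within common flanks. They are titrated with SNAP-549-labelled MS2 coat protein in RNA-MaP buffer (100 mM Tris pH 7.5, 80 mM KCl, 4 mM MgCl2), without ligand or with the indicated ligand. Median apparent KD per design.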

[1] = input ligand: theophylline 20 uM
[2] = input ligand: theophylline 2 mM
[3] = input ligand: tryptophan 2.4 mM

## AAAGGUAGCAAUAAAUCUCCUACAUGUGAAGGAGCGCCCGAAAGGGCAGGUAGGUCGCACAUGAGGAUCACCCAUGUGAGCUACC [ArgEX 5 #SwitchBubble]
Input ligand: arginine 13.2 mM
  apparent KD of MS2 coat protein: 18.9 nM
Input ligand: none
  apparent KD of MS2 coat protein: 15.2 nM
[1]
  apparent KD of MS2 coat protein: 20.9 nM
[2]
  apparent KD of MS2 coat protein: 21.2 nM
[3]
  apparent KD of MS2 coat protein: 15.3 nM

## AAAGGUCGCAAUAAAUCUCCUACAUGUGAAGGAGCGCCCGAAAGGGCAGGUAGGUCGCACAUGAGGAUCACCCAUGUGAGCGACC [MAT - Exclusion Arginine A - Mod of Eli - D2]
Input ligand: arginine 13.2 mM
  apparent KD of MS2 coat protein: 10.3 nM
Input ligand: none
  apparent KD of MS2 coat protein: 12.4 nM
[1]
  apparent KD of MS2 coat protein: 14.6 nM
[2]
  apparent KD of MS2 coat protein: 13 nM
[3]
  apparent KD of MS2 coat protein: 11.8 nM

## AAAGGUCGGACGGCCGCCACUGGCUAGGUGGGUUCCGGGAUUACAUGAGGAUCACCCAUGUAUACCAGGACCGGGUUCGCCUCGU [Lageonor]
Input ligand: arginine 13.2 mM
  apparent KD of MS2 coat protein: 9.51 nM
Input ligand: none
  apparent KD of MS2 coat protein: 11.9 nM
[1]
  apparent KD of MS2 coat protein: 12.2 nM
[2]
  apparent KD of MS2 coat protein: 8.28 nM
[3]
  apparent KD of MS2 coat protein: 17.8 nM

## AAAUAAAACUGACAUACUGACCCAGUGGAAGGAGCGCACGAGGGUGCAGGUAGGUCGCCACAUGAGGAUCACCCAUGUCACGGAA [Esesinonla]
Input ligand: arginine 13.2 mM
  apparent KD of MS2 coat protein: 56 nM
Input ligand: none
  apparent KD of MS2 coat protein: 91.9 nM
[1]
  apparent KD of MS2 coat protein: 135 nM
[2]
  apparent KD of MS2 coat protein: 131 nM
[3]
  apparent KD of MS2 coat protein: 86.7 nM

## AAAUAAAUACAUGAGGAUCACCCAUGUGAAGGAGCGCGCGUUAGCGCAGGUAGGUCGCACAUGAAAGGGAAGCGAAAGAAAUAAU [MAT - Exclusion Arginine A - Mod of Eli - D16]
Input ligand: arginine 13.2 mM
  apparent KD of MS2 coat protein: 24.9 nM
Input ligand: none
  apparent KD of MS2 coat protein: 19 nM
[1]
  apparent KD of MS2 coat protein: 28.6 nM
[2]
  apparent KD of MS2 coat protein: 24.3 nM
[3]
  apparent KD of MS2 coat protein: 22.2 nM

## AAAUAAAUACAUGAGGAUCACCCAUGUGAAGGAGCGCGCGUUAGCGCAGGUAGGUCGCACAUGAACUCCAAAGUGCAAAAGCACA [MAT - Exclusion Arginine A - Mod of Eli - D8]
Input ligand: arginine 13.2 mM
  apparent KD of MS2 coat protein: 19.7 nM
Input ligand: none
  apparent KD of MS2 coat protein: 22.8 nM
[1]
  apparent KD of MS2 coat protein: 25.1 nM
[2]
  apparent KD of MS2 coat protein: 20.5 nM
[3]
  apparent KD of MS2 coat protein: 24.7 nM

## AAAUAGGUAGGAGAUACCAGAUAGGUUAACAUGAGGAUCACCCAUGUGUAUGCACUUAGUGUCCCUUGGCAGCUCCUGGAUCUGG [#19 Same State - Theophylline B]
Input ligand: arginine 13.2 mM
  apparent KD of MS2 coat protein: 33.3 nM
Input ligand: none
  apparent KD of MS2 coat protein: 47.1 nM
[1]
  apparent KD of MS2 coat protein: 77.9 nM
[2]
  apparent KD of MS2 coat protein: 63.2 nM
[3]
  apparent KD of MS2 coat protein: 60.5 nM

## AAAUAUUACGGAAGGAGCGUCUCAUAUAUGAAACAUGAGGAUCACCCAUGUGAUAAUGAACGACAGGUAGGUCGCCGAUAAUUGA [JR_AAArginiB_Sub029]
Input ligand: arginine 13.2 mM
  apparent KD of MS2 coat protein: 16.1 nM
Input ligand: none
  apparent KD of MS2 coat protein: 16 nM
[1]
  apparent KD of MS2 coat protein: 22.7 nM
[2]
  apparent KD of MS2 coat protein: 16.8 nM
[3]
  apparent KD of MS2 coat protein: 15.1 nM

## AACAACAAGGGAAGGAGCGCGAAUUAUAGACAUGAGGAUCACCCAUGUAACAUGGGAUUAACGCAGGUAGGUCGCCCACAAACAA [#08 Exclusion - Arginine B]
Input ligand: arginine 13.2 mM
  apparent KD of MS2 coat protein: 80.5 nM
Input ligand: none
  apparent KD of MS2 coat protein: 162 nM
[1]
  apparent KD of MS2 coat protein: 237 nM
[2]
  apparent KD of MS2 coat protein: 177 nM
[3]
  apparent KD of MS2 coat protein: 117 nM

## AACACAUGAGGAUCACCCAUGUUCUCGUGUCGAGGACCGGUACGGCCGCCACUCGGUUCUCGCGAGGAUGGUCAAAGACUAUCCA [Omei Trp A SS B v7]
Input ligand: arginine 13.2 mM
  apparent KD of MS2 coat protein: 40.3 nM
[1]
  apparent KD of MS2 coat protein: 57.4 nM
[2]
  apparent KD of MS2 coat protein: 50.4 nM

## AACACGGUGAUGGUAGCCGGACGCUAGGUACGAGGACCGGUACGGCCGCCACUCGAAGUCCUACGACAUGAGGAUCACCCAUGUA [Same State Trp A GF14]
Input ligand: arginine 13.2 mM
  apparent KD of MS2 coat protein: 46.2 nM
Input ligand: none
  apparent KD of MS2 coat protein: 64.3 nM
[1]
  apparent KD of MS2 coat protein: 89.2 nM
[2]
  apparent KD of MS2 coat protein: 81.7 nM
[3]
  apparent KD of MS2 coat protein: 47.7 nM

## AACAUGAGGAUCACCCAUGUACAUUUCGAUCGAGGACCGGUACGGCCGCCACUCGAAAACAUGAGGAUCACCCAUGUUCAACAGG [Tryp A SS t4]
Input ligand: arginine 13.2 mM
  apparent KD of MS2 coat protein: 65 nM
[1]
  apparent KD of MS2 coat protein: 336 nM
[2]
  apparent KD of MS2 coat protein: 390 nM

## AACGAUUAAUCGGCCGCCACUCACAUGAGGAUCACCCAUGUUGUUCUUCCAGGUGGUUCUGUUCCGAGGACCGGGAUUCCGUCCU [theeternabot_exclusion_MS2_Trp_B_42]
Input ligand: arginine 13.2 mM
  apparent KD of MS2 coat protein: 41.8 nM
[1]
  apparent KD of MS2 coat protein: 70.6 nM
[2]
  apparent KD of MS2 coat protein: 70.7 nM

## AACGUAUACAGAAGGAGCGUGAAUUAUAUUACUCAUUGUUAUACAUGAGGAUCACCCAUGUCACAGGUAGGUCGCUGUAUUCGUA [JR_ExcArginiB_Sub018]
Input ligand: arginine 13.2 mM
  apparent KD of MS2 coat protein: 76.9 nM
Input ligand: none
  apparent KD of MS2 coat protein: 131 nM
[1]
  apparent KD of MS2 coat protein: 126 nM
[2]
  apparent KD of MS2 coat protein: 162 nM
[3]
  apparent KD of MS2 coat protein: 110 nM

## AAGGCUACGACCGAUACCAGUAGACGGCAUUCGUAGGAGAACAUGAGGAUCACCCAUGUCUACCCUUGGCAGCGGAAAAUACACU [theeternabot_exclusion_MS2_Theo_B_16]
Input ligand: arginine 13.2 mM
  apparent KD of MS2 coat protein: 11.1 nM
[1]
  apparent KD of MS2 coat protein: 17.4 nM
[3]
  apparent KD of MS2 coat protein: 12.3 nM

## AAGGGACAUGAGGAUCACCCAUGUACCGAAGGAGCGGCAGAGAUGCCAGGUAGGUCGCGGUACUUGCCGGGUCAUUCAUGCUAAA [Isxeon]
Input ligand: arginine 13.2 mM
  apparent KD of MS2 coat protein: 9.48 nM
Input ligand: none
  apparent KD of MS2 coat protein: 12 nM
[1]
  apparent KD of MS2 coat protein: 14.3 nM
[2]
  apparent KD of MS2 coat protein: 11.6 nM
[3]
  apparent KD of MS2 coat protein: 13.5 nM
